# Data: patent US20160046707A1 (EISAI R AND D MANAGEMENT, published 2016)
# Positions count from the first letter of the chain named.
# T1: rhesus CCL20-secreted alkaline phosphatase (SEAP) fusion (rhesus monkey)
# T1 construct: also called rCCL20; rhesus CCL20-SEAP; not shown: the SEAP reporter (cDNA from Clontech pSEAP-Enhancer) and its junction to CCL20
# T1 chain: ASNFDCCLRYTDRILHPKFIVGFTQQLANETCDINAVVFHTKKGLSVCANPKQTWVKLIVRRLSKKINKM
# T2: cynomolgus CCL20-secreted alkaline phosphatase (SEAP) fusion (cynomolgus monkey)
# T2 construct: also called cCCL20; cynomolgus CCL20-SEAP; not shown: the SEAP reporter (cDNA from Clontech pSEAP-Enhancer) and its junction to CCL20
# T2 chain: T1 chain with V38I
# T3: recombinant human CCL16 (human, UniProt O15467 24-120)
# T3 construct: also called HCC-4
# T3 sequence (looked up): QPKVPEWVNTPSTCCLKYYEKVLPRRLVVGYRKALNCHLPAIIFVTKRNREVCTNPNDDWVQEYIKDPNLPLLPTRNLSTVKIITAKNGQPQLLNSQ
# T4: mouse CCL20-secreted alkaline phosphatase (SEAP) fusion (mouse, UniProt O89093 28-97)
# T4 construct: Expressed in HEK293E, used as culture supernatant; also called SEAP-tagged mouse CCL20; mCCL20; not shown: secreted alkaline phosphatase (SEAP), cDNA from pSEAP-Enhancer vector (Clontech)
# T4 sequence: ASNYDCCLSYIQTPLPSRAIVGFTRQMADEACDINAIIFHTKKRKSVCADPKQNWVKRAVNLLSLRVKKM
# B1: mouse anti-human CCL20 monoclonal antibody 36F7C10 (antibody, V domains shown)
# VH: QVQLQQPGAELVKPGASVKMSCKASGYTFTNYWMHWVKQRPGQGLEWIGVIDPSDSYTTYNQKFKGKATLTVDTSSSTAYMQLSSLTSEDSAVYYCTRGNYGVDYAMDYWGQGTSVTVSS
# VL: DIQMTQSPASLSASVGETVTITCGASENIYGALNWYQRKQGKSPQLLIYGATNLADGMSSRFSGSGSGRQYSLKISSLHPDDVATYYCQNVLITPYTFGGGTKLEIK
# notes: Mouse hybridoma antibody; also called MouseMAb; parental mouse clone 36F7C10
# B2: chimeric 36F7C10 antibody (36F7C10-hFc) (antibody, V domains shown)
# VH: B1 VH
# VL: B1 VL
# notes: also called chimeric 36F710; Chimeric MAb
# B3: humanized anti-human CCL20 antibody 36LK3/36HC2 (antibody, human IgG1, kappa, V domains shown)
# VH: QVQLVQSGAEVKKPGASVKVSCKASGYTFTNYWMHWVRQAPGQGLEWMGVIDPSDSYTTYAQKFQGRVTMTVDTSTSTVYMELSSLRSEDTAVYYCARGNYGVDYAMDYWGQGTLVTVSS
# VL: DIQMTQSPSSLSASVGDRVTITCGASENIYGALNWYQRKPGKAPKLLIYGATNLADGVPSRFSGSGSGRDYTLTISSLQPEDFATYYCQNVLITPYTFGQGTKLEIKR
# notes: expressed in HEK293 cells; also called HC2/LK3; HC2LK3
# B4: humanized anti-human CCL20 antibody 36LC3/36HC2 (antibody, human IgG1, kappa, V domains shown)
# VH: B3 VH
# VL: B3 VL with G24R, R38Q, D70Q, T72S, Q100G
# notes: expressed in HEK293 cells; also called HC2/LC3; HC2LC3
# Assays:
# [1] = target: T5, human CCL20-secreted alkaline phosphatase (SEAP) fusion (human, UniProt P78556 27-96); assay: ELISA on CCL20-SEAP, Abs 450; x axis 'ug/ml' in 4-fold steps down from 10, taken as the antibody concentration as in FIG. 11C
# T5 construct: also called hCCL20; human CCL20-SEAP; not shown: secreted alkaline phosphatase (SEAP), cDNA from pSEAP-Enhancer vector (Clontech)
# [2] = target: T1, rhesus CCL20-secreted alkaline …; assay: as above
# [3] = target: T2, cynomolgus CCL20-secreted alkaline …; assay: as above
# [4] = target: rat CCL20-secreted alkaline phosphatase (SEAP) fusion (rat, UniProt P97884 27-96; P05187 23-511); assay: as above
# recombinant human CCL16 [5] = target: T3, recombinant human CCL16; assay: ELISA, plate-bound chemokine (1 ug/ml), antibody 10 ug/ml, OD450
# How it was run: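 Wells coated overnight at 4 °C with 1 μg/ml recombinant human chemokine in PBS, blocked 1 h, then incubated 1 h at room temperature with antibodies at 10 μg/ml in 0.02% Tween 20/PBS. TMB development 15–30 min, stopped with 2 M H2SO4, OD read at 450 nm.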
# [6] = target: T4, mouse CCL20-secreted alkaline …; assay: ELISA (fluorescent HRP substrate): CCL20-SEAP captured on anti-alkaline phosphatase in 5-fold dilutions from 20 nM (x axis, nM), antibody at 1 ug/ml
# Procedure: To test whether the chimeric and humanized antibodies can bind to mouse, cynomolgus, or rhesus macaque CCL20 orthologs, we used ELISA assays as illustrated in FIG. 15. Recombinant secreted alkaline phosphatase (SEAP)-chemokine fusion proteins were engineered as described in Example 2, expressed and purified for all of the CCL20 orthologs tested. Nunc MaxiSorb flat-bottom black plates were coated with 1 μg/ml mouse anti-placental alkaline phosphatase antibody (Pierce, cat# MA1-19354) in 50 mM sodium bicarbonate, pH 9.4, overnight at 4° C. Plates were then blocked using 1× phosphate buffered saline with Tween-20 (PBST) with 5% bovine serum albumin (BSA) for 2 hours at room temperature. 20 nM SEAP-CCL20 fusion proteins were serially diluted 5-fold in Opti-MEM medium (Invitrogen). Chimeric and humanized (HC2/LC3 and HC2/LK3) antibodies were diluted to 1 μg/ml in 1×PBST with 5% BSA, added to the plates, and incubated for 1 hr at room temperature. The plates were then washed with 1×PBST with 5% BSA three times. […] QuantaBlu fluorescent HRP substrate (Pierce cat#15169) was added for detection of bound antibody by measuring fluorescence in a Molecular Devices M5 (Excitation 325 nm/Emission 420 nm) plate reader.
# While the hamster anti-mouse CCL20 antibody 2F5-5 MAb bound mouse CCL20 with a 50% effective dose (EC₅₀) of 64 pM (data not shown), neither the chimeric nor humanized anti-human CCL20 antibodies bound detectably to mouse CCL20 or rat CCL20 under the conditions described above. By contrast, both the chimeric and humanized antibodies effectively bound to human, rhesus, and cynomolgus CCL20 (FIGS. 16A-C, 17A and B).
# recombinant human CCL16 [7] = target: T3, recombinant human CCL16; assay: SPR (Biacore): antibody captured on anti-human Fc, 100 nM chemokine injected; ratio = chemokine binding level over antibody capture level
# Procedure: We used Biacore™ analysis to test whether HC2/LK3 and HC2/LC3 cross-react with CCL16. Monoclonal mouse anti-human Fc was immobilized on all four flow cells of a CM5 chip at a flow rate of 25 μl/min with HBS-EP buffer containing 0.2 mg/mL BSA. Subsequently, 50 μl of a 1 μg/ml solution of chimeric, HC2/LC3, or HC2/LK3 antibody in HBS-EP buffer with 0.2 mg/ml BSA was injected over flow cells 2, 3, and 4, respectively. 150 μl of a 100 nM solution of CCL20 or CCL16 in HBS-EP buffer (or buffer alone) with 0.2 mg/ml BSA was then injected over all four flow cells at a flow rate of 40 μl/min. Dissociation followed for 20 min. Flow cell 1 (anti-human Fc antibody alone) was used as a reference for all flow cells.
# Under these conditions, human CCL20 bound to the chimeric (FIG. 13A), HC2/LC3 (FIG. 13B), and HC2/LK3 (FIG. 13B) antibodies captured on the chip with similar strength.
# Sequence of rat CCL20-secreted alkaline phosphatase (SEAP) fusion (P97884 other isoform, or with tags, fused parts or gaps): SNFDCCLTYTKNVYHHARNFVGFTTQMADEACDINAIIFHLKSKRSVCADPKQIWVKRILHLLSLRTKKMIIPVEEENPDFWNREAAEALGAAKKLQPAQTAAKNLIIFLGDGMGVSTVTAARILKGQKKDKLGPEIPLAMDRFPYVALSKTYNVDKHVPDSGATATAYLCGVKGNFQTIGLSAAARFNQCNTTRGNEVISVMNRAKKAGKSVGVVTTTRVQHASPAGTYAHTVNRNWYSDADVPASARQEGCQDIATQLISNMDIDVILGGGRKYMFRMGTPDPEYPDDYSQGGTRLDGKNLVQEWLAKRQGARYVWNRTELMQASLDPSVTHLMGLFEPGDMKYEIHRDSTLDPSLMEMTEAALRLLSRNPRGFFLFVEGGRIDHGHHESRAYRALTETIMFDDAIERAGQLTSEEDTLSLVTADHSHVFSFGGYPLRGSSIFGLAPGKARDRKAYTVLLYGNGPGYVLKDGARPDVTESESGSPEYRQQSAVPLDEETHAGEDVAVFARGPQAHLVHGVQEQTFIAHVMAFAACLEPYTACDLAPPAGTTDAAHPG
# T5 sequence (P78556 27-96): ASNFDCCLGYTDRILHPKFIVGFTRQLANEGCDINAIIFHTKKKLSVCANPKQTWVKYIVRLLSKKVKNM
Binder,EC50 (read off the curve) [1],EC50 (read off the curve) [2],EC50 (read off the curve) [3],binding result [4],binding result (recombinant human CCL16 [5]),binding result [6],ReqCk/ReqAb ratio (recombinant human CCL16 [7])
B1,~0.009 µg/mL,~0.01 µg/mL,~0.009 µg/mL,no binding (tested: 10 ug/ml),no binding (tested: 10 ug/ml),,
B2,~0.03 µg/mL,~0.03 µg/mL,~0.03 µg/mL,no binding (tested: 10 ug/ml),,no binding (tested: 20 nM),0.006
B3,,,,,,no binding (tested: 20 nM),0.006
B4,,,,,no binding (tested: 10 ug/ml),no binding (tested: 20 nM),0.005
